± gives the uncertainty stated by the source.
B1: Protein S100-G, residues 1 to 79; numbered along this chain, P02633 (parent)
chain: MSAKKSPEELKGIFEKYAAKEGDPNQLSKEELKLLLQTEFPSLLKGPSTLDELFEELDKNGDGEVSFEEFQVLVKKISQ

Variants of: B1
Assay: abundance fitness (aPCA) (normalised: wild type 0, dead -1); higher = more abundant; growth selection in yeast, the domain comes from the species named
Details: Bos taurus

In order of falling abundance fitness:
1. MSAKKSPEELKGIFEKYAAKEGDPNQLSKEELKLLLQTEFPSLLKGPSTLDELFEELDKNGDGWVSFEEFQVLVKKISQ  0.155 ± 0.077
2. MSAKKSPEELKGIFEKYAAKEGDPNQLSKEELKLLLQTEFPSLLKGPSTLDELFEELDKNGDEEVSFEEFQVLVKKISQ  0.118 ± 0.096
3. MSAKKSPEELKGIFEKYAAKEGDPNQLSKEELKLLLQTEFPSLLKGPSTLDELFEELDKNGDHEVSFEEFQVLVKKISQ  0.093 ± 0.086
4. MSAKKSPEELKGIFEKYAAKEGDPNQLSKEELKLLLQTEFPSLLKGPSTLDELFEELDKNGDGQVSFEEFQVLVKKISQ  0.081 ± 0.078
5. MSAKKSPEELKGIFEKYAAKEGDPNQLSKEELKLLLQTEFPSLLKGPSTLDELFEELDKNGDGTVSFEEFQVLVKKISQ  0.073 ± 0.097
6. MSAKKSPEELKGIFEKYAAKEGDPNQLSKEELKLLLQTEFPSLLKGPSTLDELFEELDKNGDGGVSFEEFQVLVKKISQ  0.059 ± 0.076
7. MSAKKSPEELKGIFEKYAAKEGDPNQLSKEELKLLLQTEFPSLLKGPSTLDELFEELDKNGDGDVSFEEFQVLVKKISQ  0.049 ± 0.083
8. MSAKKSPEELKGIFEKYAAKEGDPNQLSKEELKLLLQTEFPSLLKGPSTLDELFEELDKNGDGHVSFEEFQVLVKKISQ  0.048 ± 0.079
9. MSAKKSPEELKGIFEKYAAKEGDPNQLSKEELKLLLQTEFPSLLKGPSTLDELFEELDKNGDGMVSFEEFQVLVKKISQ  0.035 ± 0.096
10. MSAKKSPEELKGIFEKYAAKEGDPNQLSKEELKLLLQTEFPSLLKGPSTLDELFEELDKNGDGCVSFEEFQVLVKKISQ  0.032 ± 0.08
11. MSAKKSPEELKGIFEKYAAKEGDPNQLSKEELKLLLQTEFPSLLKGPSTLDELFEELDKNGDGAVSFEEFQVLVKKISQ  0.01 ± 0.07
12. MSAKKSPEELKGIFEKYAAKEGDPNQLSKEELKLLLQTEFPSLLKGPSTLDELFEELDKNGDGPVSFEEFQVLVKKISQ  0.008 ± 0.077
13. MSAKKSPEELKGIFEKYAAKEGDPNQLSKEELKLLLQTEFPSLLKGPSTLDELFEELDKNGDYEVSFEEFQVLVKKISQ  0.002 ± 0.12
14. MSAKKSPEELKGIFEKYAAKEGDPNQLSKEELKLLLQTEFPSLLKGPSTLDELFEELDKNGDGSVSFEEFQVLVKKISQ  0.002 ± 0.065
15. MSAKKSPEELKGIFEKYAAKEGDPNQLSKEELKLLLQTEFPSLLKGPSTLDELFEELDKNGDDEVSFEEFQVLVKKISQ  -0.005 ± 0.094
16. MSAKKSPEELKGIFEKYAAKEGDPNQLSKEELKLLLQTEFPSLLKGPSTLDELFEELDKNGDAEVSFEEFQVLVKKISQ  -0.009 ± 0.08
17. MSAKKSPEELKGIFEKYAAKEGDPNQLSKEELKLLLQTEFPSLLKGPSTLDELFEELDKNGDKEVSFEEFQVLVKKISQ  -0.017 ± 0.091
18. MSAKKSPEELKGIFEKYAAKEGDPNQLSKEELKLLLQTEFPSLLKGPSTLDELFEELDKNGDMEVSFEEFQVLVKKISQ  -0.019 ± 0.08
19. MSAKKSPEELKGIFEKYAAKEGDPNQLSKEELKLLLQTEFPSLLKGPSTLDELFEELDKNGDGNVSFEEFQVLVKKISQ  -0.026 ± 0.12
20. MSAKKSPEELKGIFEKYAAKEGDPNQLSKEELKLLLQTEFPSLLKGPSTLDELFEELDKNGDGKVSFEEFQVLVKKISQ  -0.028 ± 0.1
21. MSAKKSPEELKGIFEKYAAKEGDPNQLSKEELKLLLQTEFPSLLKGPSTLDELFEELDKNGDREVSFEEFQVLVKKISQ  -0.029 ± 0.069
22. MSAKKSPEELKGIFEKYAAKEGDPNQLSKEELKLLLQTEFPSLLKGPSTLDELFEELDKNGGGEVSFEEFQVLVKKISQ  -0.032 ± 0.077
23. MSAKKSPEELKGIFEKYAAKEGDPNQLSKEELKLLLQTEFPSLLKGPSTLDELFEELDKNGDPEVSFEEFQVLVKKISQ  -0.036 ± 0.08
24. MSAKKSPEELKGIFEKYAAKEGDPNQLSKEELKLLLQTEFPSLLKGPSTLDELFEELDKNGDCEVSFEEFQVLVKKISQ  -0.04 ± 0.09
25. MSAKKSPEELKGIFEKYAAKEGDPNQLSKEELKLLLQTEFPSLLKGPSTLDELFEELDKNGDGYVSFEEFQVLVKKISQ  -0.049 ± 0.08
26. MSAKKSPEELKGIFEKYAAKEGDPNQLSKEELKLLLQTEFPSLLKGPSTLDELFEELDKNGDGLVSFEEFQVLVKKISQ  -0.055 ± 0.06
27. MSAKKSPEELKGIFEKYAAKEGDPNQLSKEELKLLLQTEFPSLLKGPSTLDELFEELDKNGDGFVSFEEFQVLVKKISQ  -0.055 ± 0.085
28. MSAKKSPEELKGIFEKYAAKEGDPNQLSKEELKLLLQTEFPSLLKGPSTLDELFEELDKNGDSEVSFEEFQVLVKKISQ  -0.06 ± 0.065
29. MSAKKSPEELKGIFEKYAAKEGDPNQLSKEELKLLLQTEFPSLLKGPSTLDELFEELDKNGDGVVSFEEFQVLVKKISQ  -0.065 ± 0.067
30. MSAKKSPEELKGIFEKYAAKEGDPNQLSKEELKLLLQTEFPSLLKGPSTLDELFEELDKNGDVEVSFEEFQVLVKKISQ  -0.079 ± 0.07
31. MSAKKSPEELKGIFEKYAAKEGDPNQLSKEELKLLLQTEFPSLLKGPSTLDELFEELDKNGDNEVSFEEFQVLVKKISQ  -0.082 ± 0.1
32. MSAKKSPEELKGIFEKYAAKEGDPNQLSKEELKLLLQTEFPSLLKGPSTLDELFEELDKNGDGIVSFEEFQVLVKKISQ  -0.101 ± 0.09
33. MSAKKSPEELKGIFEKYAAKEGDPNQLSKEELKLLLQTEFPSLLKGPSTLDELFEELDKNGDFEVSFEEFQVLVKKISQ  -0.124 ± 0.093
34. MSAKKSPEELKGIFEKYAAKEGDPNQLSKEELKLLLQTEFPSLLKGPSTLDELFEELDKNGDLEVSFEEFQVLVKKISQ  -0.13 ± 0.064

From the Human Domainome abundance scans (Beltran et al. 2025)
